Experimental findings from PMC10908796, “RTF2 controls replication repriming and ribonucleotide excision at the replisome” (Nature Communications, 2024) are described below.

Test [1] addresses T1, recombinant RNase H2 complex (hRNASEH2BCA) (human, UniProt Q5TBB1 1-312; Q8TDP1 1-164; O75792 1-299).
T1 construct: RNASEH2B, human, non-catalytic accessory subunit of RNase H2; RNASEH2C, human, non-catalytic accessory subunit of RNase H2; RNASEH2A, human, catalytic subunit of RNase H2; Heterotrimer formed beforehand by co-expression; also called RH2; source: E. coli, purified (GST pulldown, then AKTA FPLC); copies: + +
T1 sequence (looked up) 1: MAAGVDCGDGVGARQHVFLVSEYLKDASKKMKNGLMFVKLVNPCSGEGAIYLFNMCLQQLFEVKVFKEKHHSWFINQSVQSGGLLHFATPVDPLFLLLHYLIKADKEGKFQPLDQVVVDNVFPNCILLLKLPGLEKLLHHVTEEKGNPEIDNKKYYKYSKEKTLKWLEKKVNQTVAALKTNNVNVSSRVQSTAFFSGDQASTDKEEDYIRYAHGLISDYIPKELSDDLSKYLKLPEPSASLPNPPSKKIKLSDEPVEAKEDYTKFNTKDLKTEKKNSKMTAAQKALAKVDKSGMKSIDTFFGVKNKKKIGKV
T1 sequence (looked up) 2: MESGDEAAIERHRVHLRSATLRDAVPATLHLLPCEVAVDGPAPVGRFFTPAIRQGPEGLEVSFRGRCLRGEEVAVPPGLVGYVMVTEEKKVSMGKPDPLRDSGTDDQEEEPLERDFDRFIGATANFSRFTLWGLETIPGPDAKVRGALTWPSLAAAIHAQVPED
T1 sequence (looked up) 3: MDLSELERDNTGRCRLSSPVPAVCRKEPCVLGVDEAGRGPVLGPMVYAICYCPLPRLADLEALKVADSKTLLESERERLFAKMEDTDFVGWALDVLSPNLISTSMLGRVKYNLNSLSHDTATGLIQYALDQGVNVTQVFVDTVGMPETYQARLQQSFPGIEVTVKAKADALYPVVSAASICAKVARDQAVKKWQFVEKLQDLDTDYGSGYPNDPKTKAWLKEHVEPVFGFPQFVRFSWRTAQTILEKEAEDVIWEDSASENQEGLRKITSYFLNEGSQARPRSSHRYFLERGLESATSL
The test can be described thus: co-IP; recombinant RNase H2 complex and RTF2 (0.5, 1, 2, 4 pmol) from E. coli mixed 2 hr at 4 °C in 20 mM HEPES pH 7.5, 1 mM DTT, 0.01% NP-40, 5% glycerol, 0.1 mg/mL BSA, 50 mM NaCl, benzonase; NaCl raised to 150 mM; Dynabeads 1 hr at 4 °C; immunoblot. As to conditions: both partners purified.

In test [2] the target is T1, recombinant RNase H2 complex …. The test can be described thus: co-IP; recombinant GFP-tagged RTF2 (0.5, 1, 2, 4 pmol) and RNase H2 complex from E. coli, immunoprecipitation as for untagged RTF2 (20 mM HEPES pH 7.5, 150 mM NaCl final, benzonase, Dynabeads); immunoblot. As to conditions: both partners purified. Background: Immunoblotting shows a protein as a band on a membrane.

B1: recombinant hRTF2 (natural protein, human, UniProt Q9BY42 1-306, looked up)
chain: MGCDGGTIPKRHELVKGPKKVEKVDKDAELVAQWNYCTLSQEILRRPIVACELGRLYNKDAVIEFLLDKSAEKALGKAASHIKSIKNVTELKLSDNPAWEGDKGNTKGDKHDDLQRARFICPVVGLEMNGRHRFCFLRCCGCVFSERALKEIKAEVCHTCGAAFQEDDVIMLNGTKEDVDVLKTRMEERRLRAKLEKKTKKPKAAESVSKPDVSEEAPGPSKVKTGKPEEASLDSREKKTNLAPKSTAMNESSSGKAGKPPCGATKRSIADSEESEAYKSLFTTHSSAKRSKEESAHWVTHTSYCF
notes: Replication Termination Factor 2 (RTF2), human (hRTF2); source: E. coli, purified (IMAC, then AKTA FPLC)
For the molecule B1, the binding result in test [1] is on record as “binds”.

B2: recombinant GFP-tagged RTF2 (natural protein, human, UniProt Q9BY42 1-306, looked up)
chain: MGCDGGTIPKRHELVKGPKKVEKVDKDAELVAQWNYCTLSQEILRRPIVACELGRLYNKDAVIEFLLDKSAEKALGKAASHIKSIKNVTELKLSDNPAWEGDKGNTKGDKHDDLQRARFICPVVGLEMNGRHRFCFLRCCGCVFSERALKEIKAEVCHTCGAAFQEDDVIMLNGTKEDVDVLKTRMEERRLRAKLEKKTKKPKAAESVSKPDVSEEAPGPSKVKTGKPEEASLDSREKKTNLAPKSTAMNESSSGKAGKPPCGATKRSIADSEESEAYKSLFTTHSSAKRSKEESAHWVTHTSYCF
notes: Replication Termination Factor 2 (RTF2), human (hRTF2 in the methods on recombinant proteins); also called GFP-RTF2; source: E. coli, purified
On to B2, for which the binding result in test [2] was “binds”.
